Patent US20240043534A1 (UNIVERSITY OF CHICAGO, published 2024)

T1: C-terminal domain of the Zaire strain of Ebola virus nucleoprotein (EBOV NP^CT) (Ebola virus, Zaire strain (EBOV), UniProt P18272 641-739)
T1 construct: also called EBOV NT^CT; NP^CT EBOV Zaire
T1 sequence: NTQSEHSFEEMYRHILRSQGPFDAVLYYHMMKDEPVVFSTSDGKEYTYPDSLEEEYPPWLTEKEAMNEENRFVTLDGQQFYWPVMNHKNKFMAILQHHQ

B1: Protein GA1 (designed binder)
chain: TPAVTTYKLVINGRTLSGYTTTTAVDAATAEKVFKQYAYVHEVDGEWTYDDATKTFTVTEKPEKL
notes: also called pGA1; PGA1

How the values were obtained:
Protein GA1 = target: B1; experiment: SPR, Fab Lc variant as analyte on His-tag-immobilized GA1
[1] = target: T1, C-terminal domain of the Zaire strain …; experiment: SPR, Fab as analyte on His-tag-immobilized antigen
[2] = target: T2, Fab^S (Herceptin Fab scaffold variant with Lc E123S; Lc aa 123-127 SQLKS); experiment: SPR (preliminary results), Protein G variant against Fab scaffold
[3] = target: T2, Fab^S (Herceptin Fab scaffold variant …); experiment: SPR
[4] = target: T3, “Λ” Fab scaffold (4D5 scaffold with SEELQANK in the Lc region); experiment: SPR (preliminary results), Protein G variant against Fab scaffold
T3 construct: also called “Lambda” Fab scaffold
T3 sequence (light, as listed by the source): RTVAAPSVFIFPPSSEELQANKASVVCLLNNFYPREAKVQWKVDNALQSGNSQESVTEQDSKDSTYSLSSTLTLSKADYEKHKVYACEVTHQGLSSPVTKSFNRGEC

[5] = target: T4, Fab^H (Herceptin Fab scaffold with wt human kappa Lc; Lc aa 123-127 EQLKS); experiment: as above
T4 construct: also called Hkappa

Binder	Kd [1] [nM]	Kd [2] [nM]	other results
Fab Lc scaffold variant ΔΔLKT (mutated; printed in Table 1 as AALKS) (Fab, V domains shown) VH: EVQLVESGGGLVQPGGSLRLSCAASGFNISYSSIHWVRQAPGKGLEWVASIYSYSGYTSYADSVKGRFTISADTSKNTAYLQMNSLRAEDTAVYYCARSYWYHVGSWHYTGMDYWGQGTLVTVSS VL: DIQMTQSPSSLSASVGDRVTITCRASQSVSSAVAWYQQKPGKAPKLLIYSASSLYSGVPSRFSGSRSGTDFTLTISSLQPEDFATYYCQQSSSSLITFGQGTKVEIKR			Kd (Protein GA1): 12 nM
MJ20 RESTV LRT-Fab (Fab, V domains shown, also called Fab MJ20) VH: EVQLVESGGGLVQPGGSLRLSCAASGFNISYSSIHWVRQAPGKGLEWVASIYSYSGYTSYADSVKGRFTISADTSKNTAYLQMNSLRAEDTAVYYCARSYWYHVGSWHYTGMDYWGQGTLVTVSS VL: DIQMTQSPSSLSASVGDRVTITCRASQSVSSAVAWYQQKPGKAPKLLIYSASSLYSGVPSRFSGSRSGTDFTLTISSLQPEDFATYYCQQSSSSLITFGQGTKVEIKR	3.4		
MJ6 EBOV LRT-Fab (Fab, V domains shown, also called Fab MJ6) VH: EVQLVESGGGLVQPGGSLRLSCAASGFNVYYYYIHWVRQAPGKGLEWVASISPYYGYTSYADSVKGRFTISADTSKNTAYLQMNSLRAEDTAVYYCARWSYDQSMSYKSGMDYWGQGTLVTVSS VL: DIQMTQSPSSLSASVGDRVTITCRASQSVSSAVAWYQQKPGKAPKLLIYSASSLYSGVPSRFSGSRSGTDFTLTISSLQPEDFATYYCQQYSYSLVTFGQGTKVEIKR	0.7		koff [1]: 0.001 s⁻¹
B1		100	Kd [3]: ~50 nM
Protein G D (designed binder, also called pGD; D 38IDMVSS43) TPAVTTYKLVINGRTLSGYTTTTAVDAATAEKVFKQIDMVSSVDGEWTYDDATKTFTVTEKPEKL		80	
Protein G F (designed binder, also called pGF; F 38YAFGNG43) TPAVTTYKLVINGRTLSGYTTTTAVDAATAEKVFKQYAFGNGVDGEWTYDDATKTFTVTEKPEKL		60	Kd [4]: 50 nM; Kd [5]: 3 nM
